Each block holds one molecule with its values, some of them ahead of it.
Experiments:
REV7 (Homo sapiens) = REV7 (Homo sapiens) (UniProt Q9UI95); details: cited from earlier work
[1] = molecular target: T1, SHLD3;SHLD2 1-95;REV7 R124A (human;human;human, UniProt Q6ZNX1;Q86V20-2;Q9UI95 1-250;1-95;1-211, ||R124A); test: analytical size-exclusion chromatography co-migration; excess DNA; 20 mM Na-HEPES pH 7.5, 5% glycerol, 100 mM NaCl, 0.5 mM TCEP; 10 nM DNA, 30 min, room temperature; details: protein: recombinant;recombinant;recombinant, tags: tags cleaved (PreScission);GST tag, copies: 1;1;2, label: 5(6)-FAM
Target sequence in this assay (Q9UI95 whole entry R124A, one chain of several): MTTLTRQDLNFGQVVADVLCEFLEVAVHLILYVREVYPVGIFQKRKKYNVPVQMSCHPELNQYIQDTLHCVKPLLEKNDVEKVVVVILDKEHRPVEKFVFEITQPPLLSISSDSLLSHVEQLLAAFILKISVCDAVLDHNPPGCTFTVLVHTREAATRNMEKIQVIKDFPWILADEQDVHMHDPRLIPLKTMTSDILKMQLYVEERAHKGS

SHLD3 CTD = molecular target: T2, SHLD3 CTD (human, UniProt Q6ZNX1 140-250); test: fluorescence anisotropy; Kd similar to the Shieldin complex; 20 mM Na-HEPES pH 7.5, 5% glycerol, 100 mM NaCl, 0.5 mM TCEP; 10 nM DNA, 30 min, room temperature; details: protein: recombinant, tags: MBP or GST tag, cleaved (PreScission)
T2 sequence: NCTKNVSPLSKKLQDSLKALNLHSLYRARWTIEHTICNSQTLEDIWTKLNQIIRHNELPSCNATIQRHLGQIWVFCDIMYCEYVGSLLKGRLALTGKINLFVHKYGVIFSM

[2] = molecular target: T1, SHLD3;SHLD2 1-95;REV7 R124A; test: fluorescence anisotropy; 20 mM Na-HEPES pH 7.5, 5% glycerol, 100 mM NaCl, 0.5 mM TCEP; 10 nM DNA, 30 min, room temperature; details: protein: recombinant;recombinant;recombinant, tags: tags cleaved (PreScission);GST tag, cleaved (PreScission);tags cleaved (PreScission), copies: 1;1;2
Target sequence in this assay (Q6ZNX1 whole entry, chain 1 of 3): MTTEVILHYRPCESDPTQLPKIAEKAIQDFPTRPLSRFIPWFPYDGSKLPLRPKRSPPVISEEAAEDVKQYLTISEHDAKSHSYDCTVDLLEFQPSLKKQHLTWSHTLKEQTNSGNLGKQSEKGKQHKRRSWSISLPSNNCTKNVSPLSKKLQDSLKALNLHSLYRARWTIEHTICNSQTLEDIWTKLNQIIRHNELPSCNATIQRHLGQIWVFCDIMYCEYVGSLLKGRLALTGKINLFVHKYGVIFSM
Target sequence in this assay (Q86V20 1-95, chain 2 of 3): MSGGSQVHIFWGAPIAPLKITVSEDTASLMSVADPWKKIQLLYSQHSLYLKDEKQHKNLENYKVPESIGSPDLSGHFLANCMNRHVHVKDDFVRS
Target sequence in this assay (Q9UI95 whole entry R124A, chain 3 of 3): as the sequence (Q9UI95 whole entry R124A, one chain of several) above

[3] = molecular target: T3, pre-formed GST-SHLD3^1–62-REV7 (human, UniProt Q6ZNX1 1-62; Q9UI95 1-211); test: pull-down; MBP-SHLD2^1–60 as bait, five-minute incubation at 4 °C with REV7 and GST-SHLD3^1–62 or with pre-formed GST-SHLD3^1–62-REV7 and additional REV7; details: both partners purified
T3 construct: SHLD3, human, residues 1-62; as m16; REV7 (MAD2L2), human; as m1; also called GST-SHLD3^1–63-REV7 (methods); pre-formed REV7-SHLD3; source: E. coli LOBSTR, purified components, complex formed beforehand in the absence of SHLD2; not shown: GST, N-terminal, kept; hexahistidine-MBP or GST, N-terminal, cleaved

preformed REV7^ΔN-SHLD3 = molecular target: T4, preformed REV7^ΔN-SHLD3 (human, UniProt Q9UI95 15-211; Q6ZNX1 1-62); test: SEC; 5 µM preformed REV7^ΔN-SHLD3 with 10 µM MBP-SHLD2^1–60 and MBP-REV7^core, 30 min on ice, Superdex-200 3.2/300 in buffer B; details: both partners purified
T4 construct: REV7 (MAD2L2), human, without the N-terminal 14 residues; as m8; SHLD3, human, residues 1-62; as m16; source: E. coli LOBSTR, purified components, complex formed beforehand; not shown: hexahistidine-MBP or GST, N-terminal, cleaved; GST, N-terminal, kept

REV7^WT = molecular target: T5, REV7^WT (human, UniProt Q9UI95 1-211); test: SPR; SHLD3^1–62 or REV3^1871–2014 immobilised on SCR HC30M chip by EDC-NHS; REV7 injected in two-fold dilutions; buffer B with 0.05% Tween 20; details: both partners purified
T5 construct: REV7 (MAD2L2), human; The methods say in general that the MBP or GST tag was cleaved with PreScission protease; here the protein is labelled without a tag; also called MAD2L2; wild-type REV7; source: E. coli LOBSTR, purified (metal chelating column, tag cleavage, SEC); not shown: hexahistidine-MBP or GST, N-terminal, cleaved

REV7^R124A [4] = molecular target: T6, REV7^R124A (human, UniProt Q9UI95 1-211, R124A); test: as above; details: both partners purified
T6 construct: REV7 (MAD2L2), human; also called dimerization mutant; source: E. coli LOBSTR, purified (metal chelating column, tag cleavage, SEC); not shown: hexahistidine-MBP or GST, N-terminal, cleaved
T6 sequence (Q9UI95 whole entry R124A): as the sequence (Q9UI95 whole entry R124A, one chain of several) above

REV7^R124A [5] = molecular target: REV7^R124A (human, UniProt Q9UI95 1-211, R124A); test: SPR
[6] = molecular target: SHLD3 1-83;SHLD2 1-60;REV7 (human;human;human, UniProt Q6ZNX1;Q86V20-2;Q9UI95 1-83;1-60;1-211, del84-250||); test: fluorescence anisotropy; 20 mM Na-HEPES pH 7.5, 5% glycerol, 100 mM NaCl, 0.5 mM TCEP; 10 nM DNA, 30 min, room temperature; details: protein: recombinant;recombinant;recombinant; tags: ;;; copies: 1;1;2; label: 5(6)-FAM
[7] = label: 5(6)-FAM on strand 1, blunt

T5 sequence (Q9UI95 whole entry): as the sequence (Q9UI95 whole entry R124A, one chain of several) above, with A124R counted along it
T4 sequence (Q9UI95 15-211, stated change not applied, one chain of several): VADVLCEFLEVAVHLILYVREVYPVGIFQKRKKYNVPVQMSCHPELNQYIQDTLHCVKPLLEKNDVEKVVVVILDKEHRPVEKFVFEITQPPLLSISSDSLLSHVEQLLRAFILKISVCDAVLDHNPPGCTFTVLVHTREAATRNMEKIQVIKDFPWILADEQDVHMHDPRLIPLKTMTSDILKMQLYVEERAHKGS
SHLD3 1-83;SHLD2 1-60;REV7, sequence (Q9UI95 whole entry, stated change not applied, one chain of several): as the sequence (Q9UI95 whole entry R124A, one chain of several) above, with A124R counted along it
T3 sequence (Q9UI95 whole entry, the tested form may be a part, one chain of several): as the sequence (Q9UI95 whole entry R124A, one chain of several) above, with A124R counted along it

Molecule: REV7 (from UniProt Q9UI95)
Kd (REV7 (Homo sapiens)): 2000 nM

Molecule: AAGGGGAGCGGGGGAGGATAATAGGAAGGGGAGCGGGGGAGGATAATAGG (ssDNA) [50 nt ssDNA]
binding result [1]: binds

B1: dsTelo (dsDNA)
DNA 1: TTAGGGTTAGGG
DNA 2: CCCTAACCCTAA
binding result (SHLD3 CTD; [7]): binds
Kd [2, 7]: 180 nM

B2: non-telomeric dsDNA (dsDNA)
DNA 1: AGTGCCAGTGCC
DNA 2: GGCACTGGCACT
binding result (SHLD3 CTD; [7]): binds
Kd [2, 7]: 166 nM

binding result [3]: binds
binding result (preformed REV7^ΔN-SHLD3): binds
B3: MBP-SHLD2^1–60 (domain or fragment, human, UniProt Q86V20-2 1-60, looked up)
chain: MSGGSQVHIFWGAPIAPLKITVSEDTASLMSVADPWKKIQLLYSQHSLYLKDEKQHKNLE
notes: SHLD2, human, N-terminal residues 1-60; source: E. coli LOBSTR, purified; not shown: hexahistidine-MBP, N-terminal, kept

Molecule: TTAGGGTTAGGG (ssDNA) [telomeric ssDNA]
binding result (SHLD3 CTD; label: 5(6)-FAM): binds
Kd ([2]; label: 5(6)-FAM): 207 nM

binding result (REV7^WT): binds
B4: REV3^1871–2014 (domain or fragment, human, UniProt O60673 1871-2014, looked up)
chain: TPRTANILKPLMSPPSREEIMATLLDHDLSETIYQEPFCSNPSDVPEKPREIGGRLLMVETRLANDLAEFEGDFSLEGLRLWKTAFSAMTQNPRPGSPLRSGQGVVNKGSSNSPKMVEDKKIVIMPCKCAPSRQLVQVWLQAKE
notes: REV3, human, residues 1871-2014 (holds RBM1 1875-1896 and RBM2 1991-2012); Named without a tag; the methods say in general that tags were cleaved; source: E. coli LOBSTR, purified; not shown: hexahistidine-MBP or GST, N-terminal, cleaved

Kd (REV7^WT): ~50 nM
binding result (REV7^R124A [4]): binds
Kd (REV7^R124A [5]): ~67 nM
B5: SHLD3^1–62 (domain or fragment, human, UniProt Q6ZNX1 1-62, looked up)
chain: MTTEVILHYRPCESDPTQLPKIAEKAIQDFPTRPLSRFIPWFPYDGSKLPLRPKRSPPVISE
notes: the methods say in general that tags were cleaved; also called SHLD3^RBM; source: E. coli LOBSTR, purified; not shown: hexahistidine-MBP or GST, N-terminal, cleaved

Molecule: AGTGCCAGTGCC (ssDNA) [non-telomeric ssDNA]
binding result (SHLD3 CTD; label: 5(6)-FAM): binds
Kd ([2]; label: 5(6)-FAM): 137 nM
binding result [6]: no binding
